From patent US20140107315A1 come the findings set out here.

For assay [1], the target named is human immunoglobulin G drug separated from human plasma (Gammagard, Baxter) (human). As to the kind of experiment: SPR (Biacore 3000), human IgG immobilized on CM5 chip, ligand as analyte, 25 C, pH 7.4, 1:1 model. (In general: SPR reads the build-up and loss of mass on a sensor chip optically.)
The target in assay [2] is human IgG (Gamma globulin, Nichiyaku) (human). As to the kind of experiment: affinity chromatography, ligand immobilized on HiTrap NHS-activated HP (6.5 mg/mL-gel), 1 mg/mL human IgG at 1.9 mL/min, 5% breakthrough.
The target of assay [3] is human immunoglobulin G drug separated from human plasma (Gammagard, Baxter) (human). Put plainly: SPR (Biacore) as in Example 3, human IgG immobilized on chip, 1:1 model.

The substance “C-K04R/K07D/G29A/K35R/K42R/K49R/K50H/K58G.1d (designed binder)” displayed a Ka in assay [1] of 1.3e+07 M⁻¹.
Turning to “C-K04R/K07E/G29A/K35R/K42R/K49R/K50H/K58G.1d (designed binder)”, in assay [1], the Ka is 2.7e+07 M⁻¹.
Substance “C-K04R/K07R/G29A/K35R/K42R/K49R/K50R/K58G.1d with Ser-Lys added at the C terminal (Brevibacillus, Example 4) (designed binder)” displayed a 5% antibody dBC in assay [2] of 25.7 mg/mL-gel. This substance also had a Ka in assay [3] of 2.2e+07 M⁻¹.
The substance “C-K04R/K07R/G29A/K35R/K42R/K49R/K50R/K58G.1d (from pGEX-2T, Example 2) (designed binder)” gave a Ka in assay [1] of 4.8e+07 M⁻¹.
On to “C-K04R/K07E/G29A/K35R/K42R/K49R/K50R/K58G.1d (designed binder)”, for which, in assay [1], the Ka was 1.1e+07 M⁻¹.
“C-K04R/K07R/G29A/K35R/K42R/K49Q/K50R/K58G.1d (designed binder)” gave a Ka in assay [1] of 3.3e+07 M⁻¹.
